The values below come from PMC5891081.

Data set [1] has as its target GAL4-DBD-fused RAD52 (10xQ) (human) (UniProt P43351). As to the kind of experiment: two-hybrid; yeast; GAL4 DBD-fused RAD52 with NLS-GAL4 AD fusions; lacZ reporter, liquid beta-galactosidase assay, activity relative to RAD52 (Wt).
Data set [2] deals with T1, RAD52 wild type (Homo sapiens, UniProt P43351 1-418).
T1 sequence: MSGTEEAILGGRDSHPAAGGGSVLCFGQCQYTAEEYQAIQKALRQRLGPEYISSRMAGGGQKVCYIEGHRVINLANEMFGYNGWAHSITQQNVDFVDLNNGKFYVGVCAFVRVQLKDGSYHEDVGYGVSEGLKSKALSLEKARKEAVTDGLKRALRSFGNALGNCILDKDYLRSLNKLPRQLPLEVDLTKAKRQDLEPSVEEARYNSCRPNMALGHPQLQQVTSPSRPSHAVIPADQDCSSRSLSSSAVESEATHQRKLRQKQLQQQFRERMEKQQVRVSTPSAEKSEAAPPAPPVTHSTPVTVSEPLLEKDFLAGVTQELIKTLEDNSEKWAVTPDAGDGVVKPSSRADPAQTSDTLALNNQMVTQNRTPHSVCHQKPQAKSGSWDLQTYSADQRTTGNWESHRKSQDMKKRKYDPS
The experiment in a line: EMSA; 10 uM nucleotides DNA; 16 uL reactions, Cy5-50-mer 10 uM in nucleotides; 5X buffer contains 0.1 M HEPES-NaOH pH 7.5 (20 mM final if 1X); remaining components, salt and temperature cut off in the material. Particulars: protein: recombinant; tags: C-terminal His6 construct (pET21a) or pET15b construct; label: 5'-Cy5; single strand, 50 nt. In general terms: In EMSA bound probe runs differently from free probe, usually more slowly.

Regarding “GAL4-DBD-fused RAD52 (10xQ) (from UniProt P43351 1-418) (natural protein)”, the fold change of beta-galactosidase activity against RAD52 (Wt) in data set [1] is 1.7 fold.

B1: FX174-50-1 (oligo 1) (ssDNA)
DNA: TCGCCATCAACTAACGATTCTGTCAAAAACTGACGCGTTGGATGAGGAGA
Turning to B1, the binding result in data set [2] was “binds”.
